B1: Hammerhead Ribozyme (parent)
chain: ACCGGAUGUGCUUUCCGGUCUGAUGAGUCCGUGAGGACGAAACAG

Variants of: B1
Assay: self-cleavage, relative activity (ratio to wild type); higher = more cleavage; co-transcriptional

| Variant | self-cleavage |
| --- | --- |
| ACCGGAUGUGUUUUCCGGUCUGAUGAGUCCGUGAGAACGAAACAG | 0.607 |
| ACCGGAUGUGUUUUCCGGUCUGAUGAGUCCGUGAGCACGAAACAG | 0.499 |
| ACCGGAUGUGUUUUCCGGUCUGAUGAGUCCGUGAGUACGAAACAG | 0.669 |
| ACCGGAUGUGUUUUCCGGUCUGAUGAGUCCGUGAGGACAAAACAG | 0.383 |
| ACCGGAUGUGUUUUCCGGUCUGAUGAGUCCGUGAGGACCAAACAG | 0.389 |
| ACCGGAUGUGUUUUCCGGUCUGAUGAGUCCGUGAGGACUAAACAG | 0.3 |
| ACCGGAUGUGUUUUCCGGUCUGAUGAGUCCGUGAGGACGAAACAA | 0.515 |
| ACCGGAUGUGUUUUCCGGUCUGAUGAGUCCGUGAGGACGAAACAC | 0.44 |
| ACCGGAUGUGUUUUCCGGUCUGAUGAGUCCGUGAGGACGAAACAU | 0.497 |
| ACCGGAUGUGUAUUCCGGUCUGAUGAGUCCGUGAGGACGAAACAG | 1.3 |
| ACCGGAUGUGUCUUCCGGUCUGAUGAGUCCGUGAGGACGAAACAG | 1.28 |
| ACCGGAUGUGUGUUCCGGUCUGAUGAGUCCGUGAGGACGAAACAG | 1.18 |
| ACCGGAUGUGUUAUCCGGUCUGAUGAGUCCGUGAGGACGAAACAG | 1.34 |
| ACCGGAUGUGUUCUCCGGUCUGAUGAGUCCGUGAGGACGAAACAG | 0.915 |
| ACCGGAUGUGUUGUCCGGUCUGAUGAGUCCGUGAGGACGAAACAG | 1.25 |
| ACCGGAUGUGUUUACCGGUCUGAUGAGUCCGUGAGGACGAAACAG | 0.998 |
| ACCGGAUGUGUUUCCCGGUCUGAUGAGUCCGUGAGGACGAAACAG | 0.771 |
| ACCGGAUGUGUUUGCCGGUCUGAUGAGUCCGUGAGGACGAAACAG | 0.765 |
| ACCGGAUGUGUUUUCCGGACUGAUGAGUCCGUGAGGACGAAACAG | 0.32 |

| Variant | self-cleavage |
| --- | --- |
| ACCGGAUGUGUUUUCCGGCCUGAUGAGUCCGUGAGGACGAAACAG | 0.484 |
| ACCGGAUGUGUUUUCCGGGCUGAUGAGUCCGUGAGGACGAAACAG | 0.329 |
| ACCGGAUGUGUUUUCCGGUCAGAUGAGUCCGUGAGGACGAAACAG | 0.697 |
| ACCGGAUGUGUUUUCCGGUCCGAUGAGUCCGUGAGGACGAAACAG | 0.561 |
| ACCGGAUGUGUUUUCCGGUCGGAUGAGUCCGUGAGGACGAAACAG | 0.563 |
| ACCGGAUGUGUUUUCCGGUCUGAAGAGUCCGUGAGGACGAAACAG | 1.2 |
| ACCGGAUGUGUUUUCCGGUCUGACGAGUCCGUGAGGACGAAACAG | 1.08 |
| ACCGGAUGUGUUUUCCGGUCUGAGGAGUCCGUGAGGACGAAACAG | 1.02 |
| ACCGGAUGUGUUUUCCGGUCUGAUGAGACCGUGAGGACGAAACAG | 0.768 |
| ACCGGAUGUGUUUUCCGGUCUGAUGAGCCCGUGAGGACGAAACAG | 0.954 |
| ACCGGAUGUGUUUUCCGGUCUGAUGAGGCCGUGAGGACGAAACAG | 0.703 |
| ACCGGAUGUGUUUUCCGGUCUGAUGAGUCCGAGAGGACGAAACAG | 0.889 |
| ACCGGAUGUGUUUUCCGGUCUGAUGAGUCCGCGAGGACGAAACAG | 0.964 |
| ACCGGAUGUGUUUUCCGGUCUGAUGAGUCCGGGAGGACGAAACAG | 0.799 |
| ACCGGAUGUGCAUUCCGGUCUGAUGAGUCCGUGAGGACGAAACAG | 1.05 |
| ACCGGAUGUGCAUUCCGGUCUGCUGAGUCCGUGAGGACGAAACAG | 0.366 |
| ACCGGAUGUGCAUUCCGGUCUGGUGAGUCCGUGAGGACGAAACAG | 0.394 |
| ACCGGAUGUGCAUUCCGGUCUGUUGAGUCCGUGAGGACGAAACAG | 0.317 |
| ACCGGAUGUGCAUUCCGGUCUGAUGCGUCCGUGAGGACGAAACAG | 0.429 |

| Variant | self-cleavage |
| --- | --- |
| ACCGGAUGUGCAUUCCGGUCUGAUGGGUCCGUGAGGACGAAACAG | 0.424 |
| ACCGGAUGUGCAUUCCGGUCUGAUGUGUCCGUGAGGACGAAACAG | 0.587 |
| ACCGGAUGUGCAUUCCGGUCUGAUGAGUCCGUGCGGACGAAACAG | 1.08 |
| ACCGGAUGUGCAUUCCGGUCUGAUGAGUCCGUGGGGACGAAACAG | 0.904 |
| ACCGGAUGUGCAUUCCGGUCUGAUGAGUCCGUGUGGACGAAACAG | 1 |
| ACCGGAUGUGCAUUCCGGUCUGAUGAGUCCGUGAGGCCGAAACAG | 1.2 |
| ACCGGAUGUGCAUUCCGGUCUGAUGAGUCCGUGAGGGCGAAACAG | 0.71 |
| ACCGGAUGUGCAUUCCGGUCUGAUGAGUCCGUGAGGUCGAAACAG | 0.827 |
| ACCGGAUGUGCAUUCCGGUCUGAUGAGUCCGUGAGGACGCAACAG | 0.556 |
| ACCGGAUGUGCAUUCCGGUCUGAUGAGUCCGUGAGGACGGAACAG | 0.315 |
| ACCGGAUGUGCAUUCCGGUCUGAUGAGUCCGUGAGGACGUAACAG | 0.32 |
| ACCGGAUGUGCAUUCCGGUCUGAUGAGUCCGUGAGGACGACACAG | 0.325 |
| ACCGGAUGUGCAUUCCGGUCUGAUGAGUCCGUGAGGACGAGACAG | 0.32 |
| ACCGGAUGUGCAUUCCGGUCUGAUGAGUCCGUGAGGACGAUACAG | 0.388 |
| ACCGGAUGUGCAUUCCGGUCUGAUGAGUCCGUGAGGACGAACCAG | 0.359 |
| ACCGGAUGUGCAUUCCGGUCUGAUGAGUCCGUGAGGACGAAGCAG | 0.252 |
| ACCGGAUGUGCAUUCCGGUCUGAUGAGUCCGUGAGGACGAAUCAG | 0.313 |
| ACCGGAUGUGCAUUCCGGUCUGAUGAGUCCGUGAGGACGAAACCG | 0.481 |
| ACCGGAUGUGCAUUCCGGUCUGAUGAGUCCGUGAGGACGAAACGG | 1.66 |

From the RNAGym collection of RNA variant scans (doi:10.7554/elife.80360)
